For one protein, Km results are on record in publication PMC8136917, “The glycosyltransferase UGT76B1 modulates N-hydroxy-pipecolic acid homeostasis and plant immunity” (The Plant Cell, 2021).

Substrate in series [1]: O=C(O)[C@@H]1CCCCN1O
Nature of the series: UPLC-nanoESI-QTRAP-MS of product NHP-OGlc; Hill regression. Type of series: biochemical, Arabidopsis thaliana. Conditions: UDP-glucose co-substrate (2 mM in methods); 5 min at 25°C (Figure 6 legend; methods say 15 min at 30°C).

Substrate in series [2]: O=C(O)c1ccccc1O
The experiment in a line: UPLC-nanoESI-QTRAP-MS of product SAG; Hill regression. Conditions: UDP-glucose co-substrate (2 mM in methods); 5 min at 25°C (Figure 6 legend; methods say 15 min at 30°C). The class given is biochemical, Arabidopsis thaliana.

B1: UGT76B1 (Arabidopsis thaliana) (protein)
chain: METRETKPVIFLFPFPLQGHLNPMFQLANIFFNRGFSITVIHTEFNSPNSSNFPHFTFVSIPDSLSEPESYPDVIEILHDLNSKCVAPFGDCLKKLISEEPTAACVIVDALWYFTHDLTEKFNFPRIVLRTVNLSAFVAFSKFHVLREKGYLSLQETKADSPVPELPYLRMKDLPWFQTEDPRSGDKLQIGVMKSLKSSSGIIFNAIEDLETDQLDEARIEFPVPLFCIGPFHRYVSASSSSLLAHDMTCLSWLDKQATNSVIYASLGSIASIDESEFLEIAWGLRNSNQPFLWVVRPGLIHGKEWIEILPKGFIENLEGRGKIVKWAPQPEVLAHRATGGFLTHCGWNSTLEGICEAIPMICRPSFGDQRVNARYINDVWKIGLHLENKVERLVIENAVRTLMTSSEGEEIRKRIMPMKETVEQCLKLGGSSFRNLENLIAYILSF
For B1, the Km in series [1] was found to be 191 ± 14 µM; in series [2] it was 75 ± 2 µM.

As a reminder, the Km is the substrate concentration at which the rate is half of its maximum.
